# Key:
# [1] = molecular target: isolated PDZ domain of Pdlim5 fused to a Golgi localization sequence (UniProt Q96HC4); experiment: Golgi co-relocalization assay (immunofluorescence, Pearson's correlation coefficient); settings: HT-22 cells; co-expression of GLS-PDZ with isolated LIM 4xMut; parent: est. 0.84; read off a plot
# Abl1 SH2 domain = Abl1 SH2 domain (UniProt P00519); experiment: GST-domain microarray probed with biotinylated peptide; settings: reference: unphosphorylated peptide; sites Y251
# Abl2 SH2 domain = Abl2 SH2 domain (UniProt P42684); experiment: as above; settings: reference: unphosphorylated peptide; sites Y251
# Nck2 SH2 domain = Nck2 SH2 domain (UniProt O43639); experiment: as above; settings: reference: unphosphorylated peptide; sites Y251
# Yes SH2 domain = Yes SH2 domain (UniProt P07947); experiment: as above; settings: reference: unphosphorylated peptide; sites Y251
# Fyn SH2 domain = Fyn SH2 domain (UniProt P06241); experiment: as above; settings: reference: unphosphorylated peptide; sites Y251
# [2] = molecular target: isolated LIM domain of Pdlim5 fused to a Golgi localization sequence; experiment: Golgi co-relocalization assay (immunofluorescence, Pearson's correlation coefficient); settings: HT-22 cells; co-expression of GLS-LIM with isolated PDZ 4xMut; parent: est. 0.88; read off a plot
# Sequence of UniProt Q96HC4 (Q96HC4 2-85): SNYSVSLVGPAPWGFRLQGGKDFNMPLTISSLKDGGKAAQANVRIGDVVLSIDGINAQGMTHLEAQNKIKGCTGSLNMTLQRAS
substance,measurement,setting,value
isolated LIM domain of Pdlim5 (not fused to GLS) C541G; F543A; T562A; C570A,other: Pearson corr. coef. (r),[1],0.05
Pdlim5 242-261 (from UniProt Q96HC4) pY251 peptide,binding against the reference,Abl1 SH2 domain,stronger
same,binding against the reference,Abl2 SH2 domain,stronger
same,binding against the reference,Nck2 SH2 domain,stronger
same,binding against the reference,Yes SH2 domain,stronger
same,binding against the reference,Fyn SH2 domain,stronger
isolated PDZ domain of Pdlim5 (not fused to GLS) (from UniProt Q96HC4) P13G; R17A; K34G; K71A,other: Pearson corr. coef. (r),[2],0.08
